Reference: publication PMC7705432 (Cell Research, 2020)

B1: H014 Fab (Fab, V domains shown)
VH: VQLVQSGAEVKKPGATVKISCKVSGYSFSNYYIHWVKQAPGKSLEWIGYIDPFNGGTSDNLKFKGAATLTADTSTDTAYMELSSLRSEDTAVYYCARSEYDPYYVMDYWGQGTTVTVSS
VL: IVLTQSPFQSVSPKEKVTITCRASQSISSNLHWYQQKPDQSPKLLIKYASQSISGIPSRFSGSGSGTDFTLTINSLEAEDFGIYFCQQTNFWPYIFGQGTKLEIL
B2: P17 Fab (Fab, V domains shown)
VH: QQLVESGGGVVQPGRSLRLSCAASGFTFSSYAMHWVRQAPGKGLEWVAVISYDGSNKYYADSVKGRFTISRDNSKNTLYLQMNSLRAEDTAVYYCARHATLMNNKDIWGQGTLVTVSS
VL: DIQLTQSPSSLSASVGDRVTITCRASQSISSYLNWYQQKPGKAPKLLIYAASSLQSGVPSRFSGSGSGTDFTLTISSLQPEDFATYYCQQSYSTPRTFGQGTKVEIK
notes: also called P17 Fabs

Target: T1, SARS-CoV-2 S trimer (SARS-CoV-2, Wuhan-Hu-1 (GenBank …, stabilised))
T1 construct: also called Spike (S) protein
Test: cryo-EM structure
Conditions: both partners purified

Binder	stoichiometry N
B1	3 Fabs per S trimer
B2	3 Fabs per S trimer
